Experimental data published in US20220064302A1 (GIGAGEN, published 2022).

Key:
[1] = target: T1, human PD-1 (soluble PD-1 protein, R&D Systems) (human, UniProt Q15116 25-170, limits assumed); assay: BLI (Octet Red96), mAb on AHC biosensor, PD-1 as analyte
T1 construct: the kinetics paragraphs say only 'PD-1' / 'antigen'; also called hPD-1; soluble PD-1 immunogen
Procedure: For BLI, antibodies were loaded onto an Anti-Human IgG Fc (AHC) biosensor using the Octet Red96 system (ForteBio). Loaded biosensors were dipped into antigen dilutions beginning at 300 nM, with 6 serial dilutions at 1:3. Kinetic analysis was performed using a 1:1 binding model and global fitting.

PD-1 expressed on cells = target: T2, PD-1 expressed on cells (human, UniProt Q15116 25-288); assay: flow cytometry on PD-1 expressing Flp-In CHO cells
T2 construct: also called PD-1 expressed in CHO cells
T2 sequence (Q15116 25-288 limits assumed): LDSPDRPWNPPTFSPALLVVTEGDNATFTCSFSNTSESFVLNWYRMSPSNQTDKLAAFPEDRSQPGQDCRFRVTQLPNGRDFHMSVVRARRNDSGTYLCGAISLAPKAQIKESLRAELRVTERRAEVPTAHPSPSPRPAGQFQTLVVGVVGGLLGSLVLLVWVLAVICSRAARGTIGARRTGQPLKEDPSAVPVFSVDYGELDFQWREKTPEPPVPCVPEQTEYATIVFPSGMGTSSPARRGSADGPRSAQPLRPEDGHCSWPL

T1 sequence (Q15116 25-170 limits assumed): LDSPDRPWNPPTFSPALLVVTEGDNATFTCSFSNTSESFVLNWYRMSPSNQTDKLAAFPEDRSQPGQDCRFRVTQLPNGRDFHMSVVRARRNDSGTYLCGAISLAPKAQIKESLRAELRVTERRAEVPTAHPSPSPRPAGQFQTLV

- binding result (PD-1 expressed on cells): binds
B1: A14 (antibody, V domains shown)
VH: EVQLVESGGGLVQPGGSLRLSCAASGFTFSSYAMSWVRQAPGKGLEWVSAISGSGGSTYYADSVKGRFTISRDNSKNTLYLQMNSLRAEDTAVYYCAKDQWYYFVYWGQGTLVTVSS
VL: DIQMTQSPSSLSASVGDRVTITCRASQGIRNDLGWYQQKPGKAPKRLIYVASSLQSGVPSRFSGSGSGTEFTLTISSLQPEDFATYYCLQHNSYPLTFGGGTKVEIK
notes: Tested as full-length mAb expressed in CHO cells; also called antibody 14; L14H14
- binding result [1]: no binding (tested: antigen dilutions beginning at 300 nM)
